Data published in publication doi:10.1101/2021.05.11.443575.

Columns and labels:
[1] = target: FLAG-PfDdi1 (recombinant full length PfDdi1 with N-terminal FLAG tag) (P. falciparum); assay: native MS
[2] = target: FLAG-PfDdi1^D262N (recombinant full length catalytically inactive PfDdi1 with N-terminal FLAG tag) (P. falciparum); assay: native MS

Substance | stoichiometry N [1] | stoichiometry N [2]
FLAG-PfDdi1 (recombinant full length PfDdi1 with N-terminal FLAG tag) (enzyme) | 2 | 
FLAG-PfDdi1^D262N (recombinant full length catalytically inactive PfDdi1 with N-terminal FLAG tag) (enzyme) |  | 2
